According to the supplement of paper PMC10724198:
± gives the standard deviation of the averaged measurements.

System: Saccharomyces cerevisiae
Assay: protein stability index of tFT-peptide fusion (C-terminal peptide) (PSI (0-1 scale)); higher = more stable (slower turnover)
Details: genetic background: wild type; temperature: 30 C
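Also: PSI is a weighted mean of sequencing reads over stability bins, variants kept only with over 10 reads, mCherry proximal and sfGFP distal, peptide attached via GGGS linker.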

Row | Sequence | protein stability index
1 | LVKKVKSSLASL | 0.65 ± 0.076
2 | LVLERKVDSKRK | 0.761 ± 0.084
3 | LVLGRCWMSVPR | 0.535 ± 0.014
4 | LVLSGSAFFYLG | 0.666 ± 0.029
5 | LVLVEAPASRNP | 0.72449 ± 0.00013
6 | LVRCRKGEGRGA | 0.701 ± 0.032
7 | LVRDGQSHSVWN | 0.655 ± 0.098
8 | LVRRTLWGSGCL | 0.666 ± 0.013
9 | LVSGCLCRKVLV | 0.531 ± 0.0017
10 | LVVSLSYSFRSV | 0.585 ± 0.045
11 | LWGSGVYGKNEC | 0.703 ± 0.052
12 | LWKAGRIGTIWS | 0.714 ± 0.016
13 | LWLCLERFPCSR | 0.74 ± 0.042
14 | LWPQFPPRQLVD | 0.755 ± 0.069
15 | LWPSLRRFHSTS | 0.714 ± 0.2
16 | LWVGGKRREVMG | 0.706 ± 0.032
17 | LWVPPRSGRFGG | 0.681 ± 0.014
18 | LWWASRLRVPTP | 0.674 ± 0.093
19 | LYCLVEGVYTLI | 0.662 ± 0.06
20 | LYGREPAGAEPT | 0.633 ± 0.022
21 | LYHARTIRQSAK | 0.701 ± 0.018
22 | LYPVPLSPPPAD | 0.676 ± 0.026
23 | LYVFFRFPSCLS | 0.555 ± 0.018
24 | MAINAGYYKWRH | 0.767 ± 0.053
25 | MALAVRVVNCGA | 0.591 ± 0.0087
26 | MATLRVPTLSPD | 0.5743 ± 0.004

Row | Sequence | protein stability index
27 | MAWTGIDAEVCV | 0.67 ± 0.028
28 | MCGENVSWSCRS | 0.685 ± 0.038
29 | MEDSRSDSSGSP | 0.6534 ± 0.00074
30 | MESIIHPNSGIV | 0.744 ± 0.13
31 | MFGCGSRGSGVV | 0.695 ± 0.093
32 | MFLPNPTLLTLN | 0.559 ± 0.022
33 | MGGLFGWLVFWI | 0.653 ± 0.27
34 | MGGMGRGGRREI | 0.692 ± 0.022
35 | MGKEELDKKDEG | 0.625 ± 0.032
36 | MGYYDGIRYKEV | 0.735 ± 0.092
37 | MILNLLLFRSKK | 0.67 ± 0.05
38 | MKPPIGGNKPGL | 0.726 ± 0.017
39 | MKRRSEGDLLQP | 0.64 ± 0.047
40 | MKSSPFRASLDT | 0.676 ± 0.094
41 | MNLAGRRAVEEW | 0.659 ± 0.024
42 | MNPRLTNKNNSS | 0.765 ± 0.058
43 | MNPSADYSIGAR | 0.688 ± 0.062
44 | MNVHGHERLRPS | 0.678 ± 0.066
45 | MPARGLAWLPVS | 0.654 ± 0.064
46 | MPPRNAENRSLP | 0.6793 ± 0.003
47 | MPRSGRLSSRKE | 0.718 ± 0.023
48 | MPVWGGSASRAL | 0.713 ± 0.066
49 | MRAIRPGHSDLV | 0.629 ± 0.043
50 | MRRAQADRVYRL | 0.7097 ± 0.0024
51 | MRRNGRNILGVA | 0.729 ± 0.054
52 | MRVKRVEVVRGG | 0.6903 ± 0.0061

Row | Sequence | protein stability index
53 | MRWVISEDPGFR | 0.695 ± 0.018
54 | MSGPHGGVADRD | 0.676 ± 0.054
55 | MSKSLQTSSHKT | 0.663 ± 0.018
56 | MTEFSESEGFIF | 0.735 ± 0.064
57 | MTMGNWLRLKRR | 0.62 ± 0.024
58 | MTSCAVDHPERR | 0.703 ± 0.0047
59 | MTWQSASGNRVA | 0.699 ± 0.056
60 | MVISTRARCMFF | 0.6727 ± 0.0059
61 | MVSMFRLFLGLV | 0.589 ± 0.016
62 | MVWCVSRGEGPV | 0.762 ± 0.037
63 | MVYLSSQYSATT | 0.661 ± 0.039
64 | MWVRKPNGNGSF | 0.6877 ± 0.0055
65 | MYLLSFRALGSS | 0.54 ± 0.0098
66 | MYTCMSSNPLAC | 0.66 ± 0.039
67 | NAKQVYVSVMTR | 0.5 ± 0.063
68 | NCAPVPLSPADS | 0.685 ± 0.032
69 | NEGYLIQGVSMG | 0.706 ± 0.0084
70 | NELRREVLEEDL | 0.657 ± 0.0085
71 | NFFGPAIFLRRR | 0.678 ± 0.022
72 | NFVLACYSYNYW | 0.523 ± 0.011
73 | NGREHHLESSYN | 0.654 ± 0.038
74 | NGSGVSEDRDEK | 0.6298 ± 0.0034
75 | NGTLQKGGLRRQ | 0.6547 ± 0.00088
76 | NGVLGYAVLEGE | 0.705 ± 0.044
77 | NHHETRNDCSST | 0.771 ± 0.12
78 | NHQKFILAACGT | 0.68 ± 0.029

Row | Sequence | protein stability index
79 | NIKLKVCKEEMR | 0.5706 ± 0.0012
80 | NIKNQEVKTHDT | 0.6796 ± 0.0054
81 | NIKPEDRNSTNA | 0.633 ± 0.087
82 | NIRETVILRIMQ | 0.606 ± 0.048
83 | NIYDFQPPVSGH | 0.77 ± 0.052
84 | NKARVDCNRSRC | 0.781 ± 0.2
85 | NKDEVHRRRGRI | 0.718 ± 0.017
86 | NKDKNDDRKLLG | 0.723 ± 0.12
87 | NKDQKTKKNKRK | 0.661 ± 0.075
88 | NKFETCIANMYI | 0.718 ± 0.058
89 | NKHVMELPGEPG | 0.647 ± 0.0079
90 | NKIDAGTPEKHR | 0.626 ± 0.041
91 | NKIKKTQKKKLG | 0.766 ± 0.1
92 | NKKDCFRNRKWE | 0.593 ± 0.03
93 | NKKKKHKNSKNN | 0.704 ± 0.055
94 | NKKKKKKSTKRN | 0.691 ± 0.044
95 | NKKKKQRGKKQK | 0.725 ± 0.045
96 | NKKKKQRINIRG | 0.749 ± 0.068
97 | NKRKNVFESTNA | 0.678 ± 0.019
98 | NLCRFHFRNRFS | 0.565 ± 0.011
99 | NLDFGYAERWQG | 0.768 ± 0.06
100 | NLHLVRNEELVL | 0.6743 ± 0.0036
101 | NLITKWTCMRLF | 0.511 ± 0.014
